Molecular target: CY5-CAS9:sgRNA complex (1:1 molar ratio) (S. pyogenes) (UniProt Q99ZW2)
Test: fluorescence titration of 5 nM CY5-CAS9:sgRNA (1:1) with increasing peptide, quadratic fit

Substance: CADY (peptide)
- Kd: 21 nM
